Experimental data: PMC3021515

How the values were obtained:
rNav1.3 (rat) [1] = target: rNav1.3 (rat) (UniProt P08104)
DmI1529K (Drosophila) [2] = target: DmI1529K (Drosophila) (UniProt P35500)
rNav1.3 (rat) [3] = target: rNav1.3 (rat) (UniProt P08104); remark: listed apart in the source
DmE896C (Drosophila) [4] = target: DmE896C (Drosophila) (UniProt P35500)
mNav1.6 (mouse) [5] = target: mNav1.6 (mouse) (UniProt Q9WTU3)
DmD838C (Drosophila) [6] = target: DmD838C (Drosophila) (UniProt P35500)
DmG904N (Drosophila) [7] = target: DmG904N (Drosophila) (UniProt P35500)
DmE1523N (Drosophila) [8] = target: DmE1523N (Drosophila) (UniProt P35500)
DmNav1 (Drosophila) [9] = target: DmNav1 (Drosophila) (UniProt P35500)
rNav1.2 (rat) [10] = target: rNav1.2 (rat) (UniProt P04775)
DmD1525E (Drosophila) [11] = target: DmD1525E (Drosophila) (UniProt P35500)
DmL899C (Drosophila) [12] = target: DmL899C (Drosophila) (UniProt P35500)
DmT1532D (Drosophila) = DmT1532D (Drosophila) (UniProt P35500)
DmI1529K (Drosophila) [13] = target: DmI1529K (Drosophila) (UniProt P35500); remark: listed apart in the source
[14] = target: DmI1529K/R1530Y (Drosophila) (UniProt P35500)
rNav1.3 (rat) [15] = target: rNav1.3 (rat) (UniProt P08104); remark: listed apart in the source
DmE896C (Drosophila) [16] = target: DmE896C (Drosophila) (UniProt P35500); remark: listed apart in the source
mNav1.6 (mouse) [17] = target: mNav1.6 (mouse) (UniProt Q9WTU3); remark: listed apart in the source
DmD838C (Drosophila) [18] = target: DmD838C (Drosophila) (UniProt P35500); remark: listed apart in the source
L(Dm)Nav1.2 (rat) = L(Dm)Nav1.2 (rat) (UniProt P04775)
DmM5 (Drosophila) = DmM5 (Drosophila) (UniProt P35500)
DmG904N (Drosophila) [19] = target: DmG904N (Drosophila) (UniProt P35500); remark: listed apart in the source
DmE1523N (Drosophila) [20] = target: DmE1523N (Drosophila) (UniProt P35500); remark: listed apart in the source
DmNav1 (Drosophila) [21] = target: DmNav1 (Drosophila) (UniProt P35500); remark: listed apart in the source
rNav1.2 (rat) [22] = target: rNav1.2 (rat) (UniProt P04775); remark: listed apart in the source
DmD1525E (Drosophila) [23] = target: DmD1525E (Drosophila) (UniProt P35500); remark: listed apart in the source
DmL899C (Drosophila) [24] = target: DmL899C (Drosophila) (UniProt P35500); remark: listed apart in the source
DmK1526L (Drosophila) = DmK1526L (Drosophila) (UniProt P35500)
DmI1534L (Drosophila) = DmI1534L (Drosophila) (UniProt P35500)
DmR1530Y (Drosophila) = DmR1530Y (Drosophila) (UniProt P35500)
[25] = target: L(1.2)DmNav1 (Drosophila) (UniProt P35500)
DmI1529K (Drosophila) [26] = target: DmI1529K (Drosophila) (UniProt P35500); remark: listed apart in the source

BmK IT2 (natural protein)
shift of the half-maximal activation voltage (ΔV1/2) by 50 µM BmK IT2, two-electrode voltage clamp, Xenopus oocytes (data not shown) (rNav1.3 (rat) [1]): -4.84 mV | EC50 of BmK IT2 from the currents it induces at −40 mV (activation threshold), two-electrode voltage clamp, Xenopus oocytes (DmI1529K (Drosophila) [2]): 15.6 µM | EC50 of BmK IT2 from the currents it induces at −40 mV (activation threshold), two-electrode voltage clamp, Xenopus oocytes (rNav1.3 (rat) [3]): > 20 µM | EC50 of BmK IT2 from the currents it induces at −40 mV (activation threshold), two-electrode voltage clamp, Xenopus oocytes (DmE896C (Drosophila) [4]): > 35 µM | EC50 of BmK IT2 from the currents it induces at −40 mV (activation threshold), two-electrode voltage clamp, Xenopus oocytes (mNav1.6 (mouse) [5]): > 50 µM | EC50 of BmK IT2 from the currents it induces at −40 mV (activation threshold), two-electrode voltage clamp, Xenopus oocytes (DmD838C (Drosophila) [6]): 3.6 µM | EC50 of BmK IT2 from the currents it induces at −40 mV (activation threshold), two-electrode voltage clamp, Xenopus oocytes (DmG904N (Drosophila) [7]): > 50 µM | EC50 of BmK IT2 from the currents it induces at −40 mV (activation threshold), two-electrode voltage clamp, Xenopus oocytes (DmE1523N (Drosophila) [8]): 2.4 µM | EC50 of BmK IT2 from the currents it induces at −40 mV (activation threshold), two-electrode voltage clamp, Xenopus oocytes (DmNav1 (Drosophila) [9]): 2.9 µM | EC50 of BmK IT2 from the currents it induces at −40 mV (activation threshold), two-electrode voltage clamp, Xenopus oocytes (rNav1.2 (rat) [10]): > 50 µM | EC50 of BmK IT2 from the currents it induces at −40 mV (activation threshold), two-electrode voltage clamp, Xenopus oocytes (DmD1525E (Drosophila) [11]): 3.3 µM | EC50 of BmK IT2 from the currents it induces at −40 mV (activation threshold), two-electrode voltage clamp, Xenopus oocytes (DmL899C (Drosophila) [12]): > 35 µM | shift of the half-maximal activation voltage (ΔV1/2) by 2 µM BmK IT2 with prepulse, two-electrode voltage clamp, Xenopus oocytes (DmT1532D (Drosophila)): -9.44 mV | shift of the half-maximal activation voltage (ΔV1/2) by 2 µM BmK IT2 with prepulse, two-electrode voltage clamp, Xenopus oocytes (DmI1529K (Drosophila) [13]): 0.12 mV | shift of the half-maximal activation voltage (ΔV1/2) by 2 µM BmK IT2 with prepulse, two-electrode voltage clamp, Xenopus oocytes [14]: -5.06 mV | shift of the half-maximal activation voltage (ΔV1/2) by 2 µM BmK IT2 with prepulse, two-electrode voltage clamp, Xenopus oocytes (rNav1.3 (rat) [15]): 0.9 mV | shift of the half-maximal activation voltage (ΔV1/2) by 2 µM BmK IT2 with prepulse, two-electrode voltage clamp, Xenopus oocytes (DmE896C (Drosophila) [16]): -1.86 mV | shift of the half-maximal activation voltage (ΔV1/2) by 2 µM BmK IT2 with prepulse, two-electrode voltage clamp, Xenopus oocytes (mNav1.6 (mouse) [17]): 0.32 mV | shift of the half-maximal activation voltage (ΔV1/2) by 2 µM BmK IT2 with prepulse, two-electrode voltage clamp, Xenopus oocytes (DmD838C (Drosophila) [18]): -10.4 mV | shift of the half-maximal activation voltage (ΔV1/2) by 2 µM BmK IT2 with prepulse, two-electrode voltage clamp, Xenopus oocytes (L(Dm)Nav1.2 (rat)): -5.05 mV | shift of the half-maximal activation voltage (ΔV1/2) by 2 µM BmK IT2 with prepulse, two-electrode voltage clamp, Xenopus oocytes (DmM5 (Drosophila)): -6.56 mV | shift of the half-maximal activation voltage (ΔV1/2) by 2 µM BmK IT2 with prepulse, two-electrode voltage clamp, Xenopus oocytes (DmG904N (Drosophila) [19]): 0.66 mV | shift of the half-maximal activation voltage (ΔV1/2) by 2 µM BmK IT2 with prepulse, two-electrode voltage clamp, Xenopus oocytes (DmE1523N (Drosophila) [20]): -12.1 mV | shift of the half-maximal activation voltage (ΔV1/2) by 2 µM BmK IT2 with prepulse, two-electrode voltage clamp, Xenopus oocytes (DmNav1 (Drosophila) [21]): -11.9 mV | shift of the half-maximal activation voltage (ΔV1/2) by 2 µM BmK IT2 with prepulse, two-electrode voltage clamp, Xenopus oocytes (rNav1.2 (rat) [22]): 1.14 mV | shift of the half-maximal activation voltage (ΔV1/2) by 2 µM BmK IT2 with prepulse, two-electrode voltage clamp, Xenopus oocytes (DmD1525E (Drosophila) [23]): -9.73 mV | shift of the half-maximal activation voltage (ΔV1/2) by 2 µM BmK IT2 with prepulse, two-electrode voltage clamp, Xenopus oocytes (DmL899C (Drosophila) [24]): -1.39 mV | shift of the half-maximal activation voltage (ΔV1/2) by 2 µM BmK IT2 with prepulse, two-electrode voltage clamp, Xenopus oocytes (DmK1526L (Drosophila)): -12.3 mV | shift of the half-maximal activation voltage (ΔV1/2) by 2 µM BmK IT2 with prepulse, two-electrode voltage clamp, Xenopus oocytes (DmI1534L (Drosophila)): -7.99 mV | shift of the half-maximal activation voltage (ΔV1/2) by 2 µM BmK IT2 with prepulse, two-electrode voltage clamp, Xenopus oocytes (DmR1530Y (Drosophila)): -5.11 mV | shift of the half-maximal activation voltage (ΔV1/2) by 2 µM BmK IT2 with prepulse, two-electrode voltage clamp, Xenopus oocytes [25]: -12.5 mV | EC50 of BmK IT2 from the currents it induces at −40 mV (activation threshold), two-electrode voltage clamp, Xenopus oocytes (unit as printed in the text; the table gives µM) (DmI1529K (Drosophila) [26]): 0.0156 µM
